# Data as given in IntAct's records for PubMed 16938849.
# B1: Mitogen-activated protein kinase kinase kinase kinase 4 (Mus musculus), P97820 (parent)
# chain: MANDSPAKSLVDIDLSSLRDPAGIFELVEVVGNGTYGQVYKGRHVKTVTAAIKVMDVTEDEEEEITLEINMLKKYSHHRNIATYYGAFIKKSPPGHDDQLWLVMEFCGAGSITDLVKNTKGNTLKEDWIAYISREILRGLAHLHIHHVIHRDIKGQNVLLTENAEVKLVDFGVSAQLDRTVGRRNTFIGTPYWMAPEVIACDENPDATYDYRSDLWSCGITAIEMAEGGPPLCDMHPMRALFLIPRNPPPRLKSKKWSKKFFSFIEGCLVKNYMQRPSTEQLLKHPFIRDQPNERQVRIQLKDHIDRTRKKRGEKDETEYEYSGSEEEEEEVPEQEGEPSSIVNVPGESTLRRDFLRLQQENKERSEALRRQQLLQEQQLREQEEYKRQLLAERQKRIEQQKEQRRRLEEQQRREREARRQQEREQRRREQEEKRRLEELERRRKEEEERRRAEEEKRRVEREQEYIRRQLEEEQRHLEILQQQLLQEQAMLLHDHRRPHAQQQPPPPQQQDRSKPSFHAPEPKPHYDPADRAREVQWSHLASLKNNVSPVSRSHSFSDPSPKFAHHHLRSQDPCPPSRSEGLSQSSDSKSEVPEPTQKAWSRSDSDEVPPRVPVRTTSRSPVLSRRDSPLQGGGQQNSQAGQRNSTSSIEPRLLWERVEKLVPRPGSGSSSGSSNSGSQPGSHPGSQSGSGERFRVRSSSKSEGSPSPRQESAAKKPDDKKEVFRSLKPAGEVDLTALAKELRAVEDVRPPHKVTDYSSSSEESGTTDEEEEDVEQEGADDSTSGPEDTRAASSPNLSNGETESVKTMIVHDDVESEPAMTPSKEGTLIVRQTQSASSTLQKHKSSSSFTPFIDPRLLQISPSSGTTVTSVVGFSCDGLRPEAIRQDPTRKGSVVNVNPTNTRPQSDTPEIRKYKKRFNSEILCAALWGVNLLVGTESGLMLLDRSGQGKVYPLISRRRFQQMDVLEGLNVLVTISGKKDKLRVYYLSWLRNKILHNDPEVEKKQGWTTVGDLEGCVHYKVVKYERIKFLVIALKSSVEVYAWAPKPYHKFMAFKSFGELLHKPLLVDLTVEEGQRLKVIYGSCAGFHAVDVDSGSVYDIYLPTHIQCSIKPHAIIILPNTDGMELLVCYEDEGVYVNTYGRITKDVVLQWGEMPTSVAYIRSNQTMGWGEKAIEIRSVETGHLDGVFMHKRAQRLKFLCGRNDKVFFSSVRSGGSSQVYFMTLGRTSLLSW
# Variants of: B1
# Settings: with Ezr
row,Variant,effect of a mutation on the interaction
1,D152N,increasing interaction strength
